Results as given in article PMC2156102.

What was measured:
[1] = target: LexABD-Rac1G12V (fusion of the LexA DNA binding domain with Drosophila Rac1 G12V) (Drosophila) (UniProt P40792); assay: two-hybrid; same fusions; quantification of ß-galactosidase activity in liquid assays on total protein extracts, three measurements
[2] = target: LexABD-Rac1G12V (fusion of the LexA DNA binding domain with Drosophila Rac1 G12V) (UniProt P40792); assay: yeast two-hybrid, ß-galactosidase activity in total protein extracts; details: parent: est. 6.4; read off a plot

LbGAPR74A (GAL4 activation domain fusion) (natural protein)
fold lower interaction (ß-galactosidase activity) than wild-type LbGAP [1]: 3 fold

GAL4AD-LbGAP (fusion of the GAL4 activation domain with LbGAP) R115A
response (ß-Galactosidase units) [2]: 0.34

GAL4AD-LbGAP (fusion of the GAL4 activation domain with LbGAP) (natural protein)
ß-galactosidase activity relative to that of LbGAP with Rac2G12V [1]: 2 fold

GAL4AD-LbGAP (fusion of the GAL4 activation domain with LbGAP) K111A
response (ß-Galactosidase units) [2]: 0.38

LbGAPS190A (GAL4 activation domain fusion) (natural protein)
fold lower interaction (ß-galactosidase activity) than wild-type LbGAP [1]: 3 fold
